The assay deals with T1, extracellular domain of human PD-1 (aa 26-150) (human, UniProt Q15116).
T1 construct: Programmed cell death-1 (PD-1), human, extracellular domain, aa 26-150; any point mutation of the construct would be told there or in PDB 8GY5; also called Programmed cell death-1; ectodomain of PD-1
In words: crystal structure; Fab mixed with PD-1 at a molar ratio of 1:1.2, complex purified by gel filtration (20 mM Tris pH 7.5, 200 mM NaCl); hanging-drop vapor diffusion, 0.1 M sodium HEPES pH 7.5, 5% PEG 3350, 20 °C; 1.98 Å, two copies of the complex in the asymmetric unit. The note with it: both partners purified. Background: SEC sorts molecules by how far they enter the pores of the column.

T1 sequence (Q15116 26-150): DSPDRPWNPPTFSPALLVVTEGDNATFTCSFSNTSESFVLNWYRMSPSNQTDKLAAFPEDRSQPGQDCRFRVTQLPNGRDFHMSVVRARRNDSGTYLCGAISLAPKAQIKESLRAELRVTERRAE

B1: cemiplimab Fab (Fab, V domains shown)
VH: EVQLLESGGVLVQPGGSLRLSCAASGFTFSNFGMTWVRQAPGKGLEWVSGISGGGRDTYFADSVKGRFTISRDNSKNTLYLQMNSLKGEDTAVYYCVKWGNIYFDYWGQGTLVTVSS
VL: DIQMTQSPSSLSASVGDSITITCRASLSINTFLNWYQQKPGKAPNLLIYAASSLHGGVPSRFSGSGSGTDFTLTIRTLQPEDFATYYCQQSSNTPFTFGPGTVVDFR
notes: heavy chain of the cemiplimab Fab; in PDB 8GY5 (deposited here); light chain (kappa) of the cemiplimab Fab; Cemiplimab is a fully human IgG4 (S228P) kappa antibody; also called Fab fragment of cemiplimab; LIBTAYO
As for B1, the binding result is given as “binds”.
